According to PMC8945915, “An Electrochemical Impedance Spectroscopy-Based Aptasensor for the Determination of SARS-CoV-2-RBD Using a Carbon Nanofiber–Gold Nanocomposite Modified Screen-Printed Electrode”:

Target: SARS-CoV-2 spike receptor-binding domain (SARS-CoV-2-RBD, ~35 kDa) (SARS-CoV-2, UniProt P0DTC2 319-541)
Assay: electrochemical impedance spectroscopy (Langmuir isotherm)

B1: thiol-terminal SARS-CoV-2-RBD aptamer (ssDNA)
DNA: CAGCACCGACCTTGTGCTTTGGGAGTGCTGGTCCAAGGGCGTTAATGGACA
modifications: 5' SH-(CH2)6 thiol
In the case of B1, the Kd is reported as 0.42 nM.
